{"source": "paper PMC6994067", "experiment_in_all_cases": "NMR", "settings_in_all_cases": "25 °C, not stated (10 mM citrate-phosphate buffer; no added salt mentioned), folded, free protein, 1 mM", "key": {"Asp14": {"molecular_target": "Asp14 (UniProt position 35, QKLIEDVNASF)"}, "Asp33": {"molecular_target": "Asp33 (UniProt position 54, NVPPADKYKTF)"}, "Asp52": {"molecular_target": "Asp52 (UniProt position 73, KRNLADAVSKA)"}, "Asp65": {"molecular_target": "Asp65 (UniProt position 86, LVPKLDEVYNA)"}, "Asp76": {"molecular_target": "Asp76 (UniProt position 97, AYNAADHAAPE)"}, "Asp82": {"molecular_target": "Asp82 (UniProt position 103, HAAPEDKYEAF)"}, "Glu103": {"molecular_target": "Glu103 (UniProt position 124, IAGTPEVHAVK)"}, "Glu13": {"molecular_target": "Glu13 (UniProt position 34, EQKLIEDVNAS)"}, "Glu39": {"molecular_target": "Glu39 (UniProt position 60, KYKTFEAAFTV)"}, "Glu66": {"molecular_target": "Glu66 (UniProt position 87, VPKLDEVYNAA)"}, "Glu7": {"molecular_target": "Glu7 (UniProt position 28, GKATTEEQKLI)"}, "Glu8": {"molecular_target": "Glu8 (UniProt position 29, KATTEEQKLIE)"}, "Glu81": {"molecular_target": "Glu81 (UniProt position 102, DHAAPEDKYEA)"}, "Glu85": {"molecular_target": "Glu85 (UniProt position 106, PEDKYEAFVLH)"}, "Glu93": {"molecular_target": "Glu93 (UniProt position 114, VLHFSEALRII)"}, "His105": {"molecular_target": "His105 (UniProt position 126, GTPEVHAVKPG)"}, "His77": {"molecular_target": "His77 (UniProt position 98, YNAADHAAPED)"}, "His90": {"molecular_target": "His90 (UniProt position 111, EAFVLHFSEAL)"}}, "data": [{"substance": "Pollen allergen Phl p 6 (Phleum pratense (timothy grass))", "values": [{"measurement": "pKa", "setting": "Asp14", "value": 3.50}, {"measurement": "pKa", "setting": "Asp33", "value": 3.38}, {"measurement": "pKa", "setting": "Asp52", "value": 2.4}, {"measurement": "pKa", "setting": "Asp65", "value": 4.80}, {"measurement": "pKa", "setting": "Asp76", "value": 3.50}, {"measurement": "pKa", "setting": "Asp82", "value": 3.06}, {"measurement": "pKa", "setting": "Glu103", "value": 3.65}, {"measurement": "pKa", "setting": "Glu13", "value": 3.80}, {"measurement": "pKa", "setting": "Glu39", "value": 4.84}, {"measurement": "pKa", "setting": "Glu66", "value": 4.06}, {"measurement": "pKa", "setting": "Glu7", "value": 4.25}, {"measurement": "pKa", "setting": "Glu8", "value": 3.19}, {"measurement": "pKa", "setting": "Glu81", "value": 3.52}, {"measurement": "pKa", "setting": "Glu85", "value": 4.59}, {"measurement": "pKa", "setting": "Glu93", "value": 4.21}, {"measurement": "pKa", "setting": "His105", "value": 6.5}, {"measurement": "pKa", "setting": "His77", "value": 7.4}, {"measurement": "pKa", "setting": "His90", "value": 7.3}]}]}
